Data published in the supplement of paper PMC10126150.
± gives the standard deviation of the averaged measurements.

Tested on: ATP
Test: switch fluorescence ratio, 500 uM ATP over buffer (Cy3 cluster intensity, sum of 5 cycles each) (fold (ratio)); higher = stronger signal-on switching upon ATP binding; sequences stand for … in TCGTCGGCAGCGTCAGATGTGTATAAGAGACAGTTTTTTTTTTTTTTTTTTTTTTTTT…TC
Conditions: aptamer strand: ATP DNA aptamer (quencher-CACCTGGGGGAGTATTGCGGAGGAAGG + anchor), 100 nM annealed; ATP concentration: 500 uM
Procedure, shortened: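 For every switch-domain sequence, the fluorescence ratio is the mean of per-cluster values, each being summed target-cycle Cy3 intensity over summed buffer-cycle Cy3 intensity. Clusters outside 100-1000 RFU were excluded. On a modified Illumina MiSeq flow-cell, the Cy3-labelled switching-strand clusters were annealed to 100 nM quencher-labelled ATP aptamer, imaged in selection buffer and then after 15 min with 500 uM ATP at 22 °C. Five such cycles were run, with NaOH stripping and re-annealing between them.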
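Note: ATP exposure 15 min at 22 °C before imaging.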

Row | Sequence | switch fluorescence ratio
1 | GGTTTTTAAA | 1 ± 0.062
2 | GGTTTTTCGT | 0.977 ± 0.024
3 | GGTTTTTGCT | 0.9584 ± 0.0068
4 | GGTTTTTGTC | 1.01 ± 0.013
5 | GGTTTTTTAT | 1.02 ± 0.019
6 | GTAAAAAGTG | 1.05 ± 0.17
7 | GTAAAATAGA | 1.01 ± 0.034
8 | GTAAAGGGGG | 0.998 ± 0.023
9 | GTAAATTTGA | 1.03 ± 0.068
10 | GTAAATTTGC | 1.01 ± 0.013
11 | GTAACCGGTA | 1.02 ± 0.024
12 | GTAACTGGGA | 1.009 ± 0.0093
13 | GTAAGAAGTG | 0.941 ± 0.033
14 | GTAAGCCCGC | 1 ± 0.053
15 | GTAAGGGATG | 1.01 ± 0.016
16 | GTAAGGTAAG | 1.05 ± 0.015
17 | GTAAGTAGCG | 0.968 ± 0.02
18 | GTAATAAATT | 1.02 ± 0.092
19 | GTAATAGTGT | 0.981 ± 0.018
20 | GTAATATCGG | 0.998 ± 0.018
21 | GTAATGCCAG | 0.986 ± 0.031
22 | GTAATGGCGG | 1.013 ± 0.0019
23 | GTAATGTGGG | 0.972 ± 0.022
24 | GTAATTGGTG | 0.992 ± 0.014
25 | GTAATTTTGA | 1.01 ± 0.057

Row | Sequence | switch fluorescence ratio
26 | GTACGACAAG | 1.11 ± 0.042
27 | GTACGGGGTT | 0.993 ± 0.023
28 | GTACGGTTTT | 0.994 ± 0.073
29 | GTACTAAATT | 1 ± 0.023
30 | GTACTTTAAT | 1.034 ± 0.0036
31 | GTAGAAATTC | 1.24 ± 0.048
32 | GTAGCAGACG | 1.16 ± 0.013
33 | GTAGCAGCAG | 1.17 ± 0.018
34 | GTAGCGGGAG | 1.057 ± 0.0053
35 | GTAGCGGGGT | 1.006 ± 0.0054
36 | GTAGGAGGGG | 0.985 ± 0.011
37 | GTAGGAGGTG | 1.07 ± 0.019
38 | GTAGGATTTC | 1.01 ± 0.027
39 | GTAGGGCGGG | 0.979 ± 0.043
40 | GTAGGGCGGT | 0.955 ± 0.026
41 | GTAGGGCGTA | 0.9635 ± 0.0073
42 | GTAGGGGATT | 1.029 ± 0.006
43 | GTAGGGGGGG | 0.999 ± 0.051
44 | GTAGGGGTTG | 1.01 ± 0.053
45 | GTAGGTCGAC | 1.01 ± 0.012
46 | GTAGTATTGG | 0.982 ± 0.028
47 | GTAGTCGGGT | 1.006 ± 0.0044
48 | GTAGTTACTT | 0.995 ± 0.051
49 | GTAGTTCGCC | 1.02 ± 0.023
50 | GTAGTTCTAG | 0.9852 ± 0.0081

Row | Sequence | switch fluorescence ratio
51 | GTAGTTCTGC | 1 ± 0.018
52 | GTAGTTTGAA | 0.989 ± 0.036
53 | GTAGTTTTGG | 1.01 ± 0.026
54 | GTATAAATGT | 0.984 ± 0.051
55 | GTATAAGGGT | 1.01 ± 0.018
56 | GTATAGGGAC | 1.03 ± 0.03
57 | GTATATATAT | 0.979 ± 0.028
58 | GTATCCGGGA | 1.02 ± 0.057
59 | GTATCTGGGT | 0.997 ± 0.011
60 | GTATGAGTCG | 1.01 ± 0.085
61 | GTATGATTGT | 0.994 ± 0.027
62 | GTATGATTTA | 0.989 ± 0.037
63 | GTATGCAGGG | 0.989 ± 0.035
64 | GTATGGAGAG | 1.0111 ± 6.5e-05
65 | GTATGGATTC | 0.987 ± 0.057
66 | GTATGGCGAC | 1.02 ± 0.011
67 | GTATGGGACG | 1.003 ± 0.006
68 | GTATGGGATA | 1.01 ± 0.035
69 | GTATGGGTGG | 1 ± 0.024
70 | GTATGTGGGT | 1.023 ± 0.0072
71 | GTATTAAAAG | 1 ± 0.049
72 | GTATTAGGTG | 1.03 ± 0.048
73 | GTATTATGCG | 1.02 ± 0.028
74 | GTATTCAGGT | 0.9921 ± 0.0035
75 | GTATTCATTT | 0.982 ± 0.036

Row | Sequence | switch fluorescence ratio
76 | GTATTCTGTT | 0.997 ± 0.013
77 | GTATTGTGGT | 0.967 ± 0.017
78 | GTATTTAGGA | 0.992 ± 0.011
79 | GTATTTGGGG | 0.985 ± 0.034
80 | GTATTTTTTT | 0.967 ± 0.013
81 | GTCAAATTGT | 0.992 ± 0.017
82 | GTCAAGGGGA | 1.02 ± 0.015
83 | GTCACCTTGA | 1.01 ± 0.014
84 | GTCAGAACTA | 0.9786 ± 0.0095
85 | GTCAGAGGGT | 0.994 ± 0.013
86 | GTCAGATGGG | 0.948 ± 0.01
87 | GTCAGCATTT | 1.03 ± 0.038
88 | GTCAGCGGTG | 0.9993 ± 0.009
89 | GTCAGGGGGG | 1.02 ± 0.081
90 | GTCAGTTTTT | 0.99392 ± 0.00038
91 | GTCATCTGGG | 0.982 ± 0.017
92 | GTCATTAACT | 1.02 ± 0.027
93 | GTCATTGTAT | 0.966 ± 0.028
94 | GTCATTTTTG | 1.02 ± 0.025
95 | GTCCCCACAG | 1.103 ± 0.007
96 | GTCGAAGAG | 0.987 ± 0.016
97 | GTCGAATTAT | 0.999 ± 0.019
98 | GTCGAGAAGG | 0.991 ± 0.009
99 | GTCGAGAGAA | 1.01 ± 0.011
100 | GTCGAGGGGC | 0.968 ± 0.049
